Data as given in patent EP4810058A1 (Shanghai Henlius Biotech, Inc., dated 2026).

Columns and labels:
[1] = target: T1, HER2 on gastric cancer cells NCI-N87 and SNU216 (human, UniProt P04626 23-1255); assay: HER2 internalization assay on NCI-N87 and SNU216 cells, pHrodo dye, flow cytometry
T1 construct: whole, on cells; also called CD340; erbB2

[2] = target: T2, HER2-Fc protein (human, UniProt P04626 23-652); assay: SPR (Biacore CM5), antibody immobilized by amine coupling, HER2-Fc injected
T2 construct: Bought reagent (Sino Biological, PA, USA, Cat. No. 10004-H02H, LC10JA1203); not shown: Fc part of the bought fusion

B1: Second anti-HER2 antibody (antibody, human IgG1, kappa, V domains shown)
VH: EVQLVESGGGLVQPGGSLRLSCAASGFTFSSYTMSWVRQAPGKGLEWVAYISAGGGSTYYPDTVKGRFTISRDNAKNSLYLQMNSLRAEDTAVYYCARHLGGTASFDYWGQGTLVTVSS
VL: DIQMTQSPSSLSASVGDRVTITCLASQTIGTWLAWYQQKPGKAPKLLIYVATSLADGVPSRFSGSGSGTDFTLTISSLQPEDFATYYCQQNAYAPWTFGQGTKVEIKR
notes: also called second antibody; hz1E11-133
binding result [1]: binds
binding result [2]: binds
